From ChEMBL document CHEMBL1122882, “3,4-O-diacetylisoproterenol. Preparation, structure proof, and beta-receptor effect” (1985)

Experiments:
[1] = test system: CC(=O)Oc1ccc(C(Cl)CNC(C)C)cc1OC(C)=O; settings: Cerebral cortex
Description: (§1) Evaluated for the affinity in stimulating cAMP synthesis by beta-1 adrenergic receptor in rat cerebral cortex.

[2] = test system: CC(=O)Oc1ccc(C(O)CNC(C)C)cc1OC(C)=O; settings: Cerebral cortex
Description: as §1

Chain of Beta-1 adrenergic receptor (Rattus norvegicus), P18090 (P18090 whole entry): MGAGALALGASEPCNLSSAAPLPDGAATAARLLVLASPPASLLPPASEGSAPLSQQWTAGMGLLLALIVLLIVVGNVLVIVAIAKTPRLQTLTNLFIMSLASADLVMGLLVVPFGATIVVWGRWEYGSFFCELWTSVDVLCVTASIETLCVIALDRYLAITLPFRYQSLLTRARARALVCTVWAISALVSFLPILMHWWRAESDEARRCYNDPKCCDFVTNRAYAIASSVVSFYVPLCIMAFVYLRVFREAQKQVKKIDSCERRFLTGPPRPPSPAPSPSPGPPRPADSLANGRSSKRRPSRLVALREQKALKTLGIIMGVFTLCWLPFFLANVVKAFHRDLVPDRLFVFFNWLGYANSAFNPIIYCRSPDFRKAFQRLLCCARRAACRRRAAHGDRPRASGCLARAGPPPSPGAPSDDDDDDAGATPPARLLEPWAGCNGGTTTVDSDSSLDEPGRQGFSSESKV

Beta-1 adrenergic receptor (Rattus norvegicus), P18090
Km [1]: 28 µM
Km [2]: 25 µM
